This data set can be described thus: soluble on expression in E. coli; label from the status in PepcDB or PDB records.
In the case of “SDIEQKQAEIIDQLVKRASTCKSEALGPLIIEATSHPSLFAFSEILALPNVAQLEGTTDSVYLDLLRLFAHGTWGDYKCNATRLPHLSPDQILKLKQLTVLTLAESNKVLPYDTLMVELDVSNVRELEDFLINECMYAGIVRGKLDQLKRCFEVPFAAGRDLRPGQLGNMLHTLSNWLNTSENLLISIQDKIKWADNMSEMDKKHRKEAEEGVEEVKKSLSMKGDVDIRGNKEMFGEPSGVMDYEEDGIRPKRRRHPVTR”, the “soluble on expression in E. coli” value is on record as “soluble”. Turning to “MALAQQLRSESDFEQLPDDVAVSANIADIEEKRGFTSHFVFVIEVKTKGGSKYLIYRRYRQFYALQSKLEERFGPESKNSPFTCSLPTLPAKVYMGAKQEIAETRIPALNAYMKNLLSLPVCVLMDPDVRIFFYQSAYDAEQVPQALRRLRPRTRKIKGVSPQGAIMDRMEAPRAEALFDFTGNSKLELSFKAGDVIFLLSKINKDWLEGTSQGATGIFPGSFVKILKDFPEDEDTTNWLRCYFYEDTGKTIKDIAVEEDLSSTPLFKDLLALMRREFQREDIALSYQDAEGDLVRLLSDEDVGLMVKQARGLPSQKRLFPWKLHVTQKDNYSVYNTVP”, the “soluble on expression in E. coli” value is “soluble”. In the case of “MMMKSLLMTPLSHRVLKLFCRQTDQRFQKQKNALQQVQREKLQQILKISTLAQAAGVTDYEQFRQQFPVTRYTHWRDRIHECRAQQSTLSNSKLVRYQPTSGSSEQIKFIPYTQAFLDELDAAIAPWLSSMYRKCSTLGQGTHYWSVSWLPESQREVLKNENLNDDSALLGVGKRLLSKFTQTVPSDVSFAAHADDALFATLCYLVADQDLAMISVWSPTFALQLLEKLTEQSHEIALVLETGQWQTRAASLKGVKAPYNSARASLLRQLMKKDTLDYQQLWPKLSLVSSWDTAGSKQWAQLLQSELPFAQFEGKGLWATEGVVTIPYDDLYPLAYHSHFYEFEYLAGEHQGDIIPSWQLKLNDLVSPVLTSGNGLLRYCLDDCLRVTGFYGQVPCFEFQGRRFGVDLVGEKLSPEVAHKLLTRLNQQHIQAISLFAVDTQQQAKPFYAVLVEGEATSPLSVDEIDQALREHFHYELARDLGQLDQPQIFYVDNGWEGYKQVVVREGMIEGNIKPEPLKKVTLSSLEQLSCAESV”, the “soluble on expression in E. coli” value was “not soluble”. “SLSAALRTLKHVLYYSRQCLMVSRNLGSVGYDPNEKTFDKILVANRGEIACRVIRTCKKMGIKTVAIHSDVDASSVHVKMADEAVCVGPAPTSKSYLNMDAIMEAIKKTRAQAVHPGYGFLSENKEFARCLAAEDVVFIGPDTHAIQAMGDKIESKLLAKKAEVNTIPGFDGVVKDAEEAVRIAREIGYPVMIKASAGGGGKGMRIAWDDEETRDGFRLSSQEAASSFGDDRLLIEKFIDNPRHIEIQVLGDKHGNALWLNERECSIQRRNQKVVEEAPSIFLDAETRRAMGEQAVALARAVKYSSAGTVEFLVDSKKNFYFLEMNTRLQVEHPVTECITGLDLVQEMIRVAKGYPLRHKQADIRINGWAVECRVYAEDPYKSFGLPSIGRLSQYQEPLHLPGVRVDSGIQPGSDISIYYDPMISKLITYGSDRTEALKRMADALDNYVIRGVTHNIALLREVIINSRFVKGDISTKFLSDVYPDGFKGHMLTKSEKNQLLAIASSLFVAFQLRAQHFQENSRMPVIKPDIANWELSVKLHDKVHTVVASNNGSVFSVEVDGSKLNVTSTWNLASPLLSVSVDGTQRTVQCLSREAGGNMSIQFLGTVYKVNILTRLAAELNKFMLEKVTEDTSSVLRSPMPGVVVAVSVKPGDAVAEGQEICVIEAMKMQNSMTAGKTGTVKSVHCQAGDTVGEGDLLVELE”: the “soluble on expression in E. coli” value is “soluble”. “MKQSLFGRVRDAILADFHNVLDEKERKNPIAMLNQYLRDSEREITKIEKLIERHKTLKSNFARELEQARYFVNKRSKQAIIAQEADELQLHERALEEVAYYEGQVTRLEEMYAGVVEQIDELERRLSEMKNKLKEMHAKRMELMARENMAHANRRMNTAMHKMDENNPFLRFEEIEDHIRDLETRMNEEHERDTFDMKIAKLEREMKEKNDVSLTKELTKLEHHHHHH”: the “soluble on expression in E. coli” value is “soluble”. Regarding “MSKKPTSAYVHIPFCTQICYYCDFSKVFIKNQPVDAYLEALIKEFNDYYQIKDLQTLYIGGGTPTAISGEQLDYLLTNLSKNLNLNMLEEFTIEANPGDLTPDKVAVLKQSAVNRVSLGVQTFNNKHLKQIGRGHNEAQIYESIDSLKSAGFDNISIDLIYALPNQTITDVKENVAKALALDIPHLSLYNLILEHHTVFMNKMRRGKLNLPAEDLEAEMFDYIISEMEDHGFEHYEISNFTKPGFESRHNLMYWNNAEYFGCGAGASGYVDGIRYRNRGPIQHYLKAIKEKRQARFQEERLSQSEKMEEELFLGLRKKSGISIQRFEDKFGLPLMEVYGQAIDDLEKDGLILVEKDCIRMSKKGLFLGDTVAEKFILEQK”, the “soluble on expression in E. coli” value is on record as “not soluble”. Consider “GSHMASMTGGQQMGRGSENLYFQGNPILAGLGFSLPKRQVSNHDLVGRINTSDEFIVERTGVRTRYHVEPEQAVSALMVPAARQAIEAAGLLPEDIDLLLVNTLSPDHHDPSQACLIQPLLGLRHIPVLDIRAQCSGLLYGLQMARGQILAGLARHVLVVCGEVLSKRMDCSDRGRNLSILLGDGAGAVVVSAGESLEDGLLDLRLGADGNYFDLLMTAAPGSASPTFLDENVLREGGGEFLMRGRPMFEHASQTLVRIAGEMLAAHELTLDDIDHVICHQPNLRILDAVQEQLGIPQHKFAVTVDRLGNMASASTPVTLAMFWPDIQPGQRVLVLTYGSGATWGAALYRKPEEVNRPC”, for which the “soluble on expression in E. coli” value is recorded as “soluble”. With “GPGSMAKYFVPDTTFGLDAECAVCCCLWTDPVEISECQHIFCRGCVEGLETCPVCCGPVTRLDTPGKFILRLLQRTQGSCSACLWKGTYSDFKEKHFECLEADEVQSSDEGKILATTECVAMREYYLEGSGAKPEGSAPSPAAVDSFLVHPVAAVNAGSPHAQPFADATNNGAPVADAHLTCEQRAQWRQSLTSTARDYGMSDREYRELMECFPDFAVPVPDRGMAPELRWRGACRLLRFLNYPNHPDDVKNLFEMADRDALTESVPFHVLCLWLMLNRRNPAQWYHMTAEPYEQFLKVAQLLDVEATGLFQLDQCRILAEQYFERDVCDAEWLRIKRLLRSKDAEIRQSFLSSANRRRVNLDESFALPSAKLPLHDVLCAFTRHVDALKKEQQQQSEAERVQADYVRRIKRIVDFYEPDAVNQLDATLQKFTGEEESLLMTLTAMYGPEPP”, the “soluble on expression in E. coli” value was “soluble”. To “DLQTLLDKSFNLIISTLDAKYCKILKLLNDGNFLVEAGVGWKPEDTGKVIKREEASVAGYTVLSKKPINIEDLDKKGSIERMGLYGYSEITHGISVLVGSLEKPYGVLAVHSTRKEKFTKEDACFLKGIASMLSLALERNKVESTL” belongs “not soluble”; to “PAQDYRCQLSRNYGKGSGSFTNYYYDKATSSCKTFRYRGSGGNGNRFKTLEDCEATCVTAE”, “soluble”; to “MIINNVKLVLENEVVNGSLEMQDGEIRAFAESQSRLPEAMDGEGGWLLPGLIELHTDNLDKFFTPRPKVDWPAHSAMSSHDALMVASGITTVLDAVAIGDVRDGGDRLENLEKMINAIEETQKRGVNRAEHRLHLRCELPHNTTLPLFEKLVQREPVTLVSLMDHSPGQRQFANREKYREYYQGKYSLTDAQMQQYEEEQLALAARWSQPNRESIAAMCRARQIALASHDDATHAHVAESHQLGSVIAEFPTTFEAAEASRKHGMNVLMGAPNIVRGGSHSGNVAASELAQLGLLDILSSDYYPASLLDAAFRVADDQSNRFTLPQAVKLVTKNPAQALNLQDRGVIGEGKRADLVLAHRKGNHIHIDHVWRQGKRVF”, “not soluble”. On to “MVRTITVASGKGGTGKTTITANLGVALAQLGHDVTIVDADITMANLELILGMEGLPVTLQNVLAGEARIDEAIYVGPGGVKVVPAGVSLEGLRKANPEKLEDVLTQIMESTDILLLDAPAGLERSAVIAIAAAQELLLVVNPEISSITDGLKTKIVAERLGTKVLGVVVNRITTLGIEMAKNEIEAILEAKVIGLIPEDPEVRRAAAYGKPVVLRSPNSPAARAIVELANYIAGGAKKKVPAEVKEKKKEGALAKMLRIFRRR”, for which the “soluble on expression in E. coli” value is “soluble”.

(Values after the DeepSol protein solubility set.)
